{
  "source": "a protein production outcome set (Wang et al. 2014)",
  "data": [
    {"test": "label from the status in PepcDB records", "values": [
      {"sequence": "MRLIRSVLCSSSAGFGQGFCSPSLRRHLSARFPRGHGNALANFSSCARSRVHAYSSASSATSVGVPVAKMRFIDIGANLLDEMYTGQYNDKPYHPPDLSAVLERAWAAGLEKLMITAGSLKEARAALELAKTDERLYCTVGCHPTRCKEFEDHPGGPEAYLQELLEVLKEGQALGKVVAVGECGLVATDYERLHFCDADTQKKYFEAQFRLAKESGLPMFLHLRAAADDFLDITGRHLGDFPRGGVVHSFDGTAEEAARVLAVPQLAIGINGCSLKTDDNLAVVGGLPLERIMLETDCPWCEIRPTHAGRKHVSAEALAGVTGAKDRKKFMPGCQVKSRNEPANIRQVLEVVAGVKGRTDLEAVADVIFGNTERMFFPTA", "protein production": "failed"},
      {"sequence": "MRLLAILILCILVAACDRQAATEELTEARSAFANREWNDAERLLEGYLRRNPEGAQRWEAWNLLVEVAHRVRNDERATVELLETMYLENGSNPERAYDILTRLGELLEAGRDFRRAAEVWPRVLELPGLTPDTRALVSRRLARILVMQRRFPEAEERLKACLDTEGLSTEGRAGCLYDLADLNVASEHLDVAVDLATTLVGLEGLTPELRSQAGFLLADALEQRGRFAEALERFEALRGVYPNDMVIDTRVRHLKGRLGRK", "protein production": "failed"},
      {"sequence": "MRLLAKIICLMLWAICVAEDCNELPPRRNTEILTGSWSDQTYPEGTQAIYKCRPGYRSLGNVIMVCRKGEWVALNPLRKCQKRPCGHPGDTPFGTFTLTGGNVFEYGVKAVYTCNEGYQLLGEINYRECDTDGWTNDIPICEVVKCLPVTAPENGKIVSSAMEPDREYHFGQAVRFVCNSGYKIEGDEEMHCSDDGFWSKEKPKCVEISCKSPDVINGSPISQKIIYKENERFQYKCNMGYEYSERGDAVCTESGWRPLPSCEEKSCDNPYIPNGDYSPLRIKHRTGDEITYQCRNGFYPATRGNTAKCTSTGWIPAPRCTLKPCDYPDIKHGGLYHENMRRPYFPVAVGKYYSYYCDEHFETPSGSYWDHIHCTQDGWSPAVPCLRKCYFPYLENGYNQNYGRKFVQGKSIDVACHPGYALPKAQTTVTCMENGWSPTPRCIRVKTCSKSSIDIENGFISESQYTYALKEKAKYQCKLGYVTADGETSGSITCGKDGWSAQPTCIKSCDIPVFMNARTKNDFTWFKLNDTLDYECHDGYESNTGSTTGSIVCGYNGWSDLPICYERECELPKIDVHLVPDRKKDQYKVGEVLKFSCKPGFTIVGPNSVQCYHFGLSPDLPICKEQVQSCGPPPELLNGNVKEKTKEEYGHSEVVEYYCNPRFLMKGPNKIQCVDGEWTTLPVCIVEESTCGDIPELEHGWAQLSSPPYYYGDSVEFNCSESFTMIGHRSITCIHGVWTQLPQCVAIDKLKKCKSSNLIILEEHLKNKKEFDHNSNIRYRCRGKEGWIHTVCINGRWDPEVNCSMAQIQLCPPPPQIPNSHNMTTTLNYRDGEKVSVLCQENYLIQEGEEITCKDGRWQSIPLCVEKIPCSQPPQIEHGTINSSRSSQESYAHGTKLSYTCEGGFRISEENETTCYMGKWSSPPQCEGLPCKSPPEISHGVVAHMSDSYQYGEEVTYKCFEGFGIDGPAIAKCLGEKWSHPPSCIKTDCLSLPSFENAIPMGEKKDVYKAGEQVTYTCATYYKMDGASNVTCINSRWTGRPTCRDTSCVNPPTVQNAYIVSRQMSKYPSGERVRYQCRSPYEMFGDEEVMCLNGNWTEPPQCKDSTGKCGPPPPIDNGDITSFPLSVYAPASSVEYQCQNLYQLEGNKRITCRNGQWSEPPKCLHPCVISREIMENYNIALRWTAKQKLYSRTGESVEFVCKRGYRLSSRSHTLRTTCWDGKLEYPTCAKR", "protein production": "failed"},
      {"sequence": "MRLLFSFSCRRRWRERERLRRMREIKMIKLPHKKPIIFFCQLFLIATLIIACHQTTIHTSTNTCTPNYNPNQDYFPNKIKITHARGLAVEYHKHYKVVTIKNPWQNAKTQFQYVLVQCGTPTPQGFKQAQVITVPIHSIVSLSTTHLPHLAKLGVVDKLIGISNSKQVNTPDVVERIKAGKITQVGNNSNVDIERLLELNPDLVTTFGTGNSQTDSYSKLTEAGLKVGINAEYMEDTPLGRSEWLKFTALFFNQEEKAEKIFAEITDKYEQVAQKVKSVKNRPTVFVGFNFKGTWFMPGGNSYVAKYLADAGGDYLWSNEQSAGSLPLSFEVVLERATNADYWLNFSQSWQSLKDLLAEDNRYADFKSVKIGNLYNNNARVNESGGNDYWEGGISNPDIVLSDLIRILHPEILPNHQLFYYHKILK", "protein production": "failed"},
      {"sequence": "MRLLVAFAVIYFISISPVCAENTASTINIPTPAIESPLASKSLLLDISLIGQEKLVTVGQHGHILLSNDGKKWQQANVPVQVTLTNVFFLNEQLGWAVGHDATILHSQDGGLNWQVQQYLPLLEKPLFDIYFKNPQQGIAVGAYGQVFRTNDGGSTWQNEFHQEILLADDVEYLNELKAEDEAAYLDEITFILPHFNRLVQDGGSLFLLGETGLLAKSDDFGLTWQQFDNFYQGSFFSLARTKTGNVLVAGLRGHVFRSLNHGSQWDEVPTNTTALLNDIVFANDERIFILGNNGMLLISTDDGESFSKIPQQDGKTLIAGVWFKGQLIAVSDVGIKVVDLSQELEHHHHHH", "protein production": "failed"},
      {"sequence": "MRLTGEIMKIITCFKLVPEEQDIVVTPEYTLNFDNADAKISQFDLNAIEAASQLATDDDEIAALTVGGSLLQNSKVRKDVLSRGPHSLYMVQDAQLEHALPLDTAKALATAVEKIGFDLLIFGEGSGDLYAQQVGLLVGELLQLPVINAVSAIQRQGNTLVIERTLEDDVEVIELSVPAVLCVTSDINVPRIPSMKAILGAGKKPVNQWQASDIGWSQSAPLAELTGIRVPPQTKRKHIILDNDSPEAIAELAEHLKKALN", "protein production": "failed"},
      {"sequence": "MRLVVLSDIHGNLGAFEAVLADIATQDVDDIISLGDNVGYGPDPGPVLRLLRQRGIDSVLGNHEAAIADRRRRRRFNSQSREALDLTEAWLDADGRACIASMPPVLLRHGCRFVHGMPPDSPFTYLFEFMGRRLPKVFTLFAEALCFVGHTHDLEVLRCDETGAVASVLLPTASPDVAGQMPPGPLPGPSPDATLATSPGAQPEGLTLSTASPRVTVQTLVLDAGARHLVNVGSVGQPRDGDPRAKYVVWDDTARTLTVRRVAYDVAAAVRRFAEAGVAQRYIDRLG", "protein production": "failed"},
      {"sequence": "MRLYVMLLSLSLIWGFSFVFIEHLLGIVGVWGTVVVRCFAGAIILLPILLMRRKLFYRPAPWKALMIVGIFNAGLPWGLIALSQTEIYSSTAAVLNALTPLFTGLIGFLLYSNALSRQQWGGIVLGFSGVVVLTGFQLQLLAPEHFVGVGTMILATICYGFASQYVKRHLHDTDVVLITTFSLLFGGLVGLIGMWITDSLHVVRVPLTIDWLSLISIIGLGCLGSGMAHLLYYDLMKKGGPEFATTVTYLIPMTAIIWGKLFLDELITKNIVIGMLMILMGVYFTSRKRNVCSKANEDSNKGELA", "protein production": "failed"},
      {"sequence": "MRMIIAFLLGCLGMFLTTGCAFVSVPLMSAPQPLAEQVLEGEGTKKILIVDISGAIGDQAKGGGLLSRGTPSTVSLVREVLLKAERDPKVAGLILRINSPGGTVTASDIIRHDLLAFKERRNLPVSACIMGIGASGGYYVATAADGITAHPTALTGSIGVLLMTFNVEGLLGKVGVEEKTIKSGGKKDLLSPFRRATPEEERLVQGVIDQFHGRFVDVVQARPGNRLSRHDLLTLADGRIFSAADALAAGLIDRIGYLDDVIASLRDRIGDPDARVVTYFRPGSYQGSIYAESAAEPSMADLLGGFDMTGGGQFMYLWRPW", "protein production": "failed"},
      {"sequence": "MRMRSGTAVAGVAALAVAGMALTAAFEPVWAHGPTRQKVRESIEINAAPAKVWAVIGNFQDMSWLPPVTKTEGEKGNEIGATRRLTLTGGATVDEELYKFDAAAMTYSYRITAVDVKVLPVTNYSSTLTVTPSADGKGATLEWAGAFYRGFPNNDPPPELSDEAAKTAVSGLYKAGLEALKKKIESGS", "protein production": "failed"},
      {"sequence": "MRNCIFYSLVLALLFLIGSCKDSDDNKTTGATYDPNQPVTVESFMPVEGKLREKVIVKGSNFGTDKSKVKVYFVDEAAERLSTVIGIDNNTLYCLAPRQLPGGNRIKVIVDGKEVTTDGTFKYEQAQNVSTISGSASKDGNDDGDLASAKFKYMWGIAAVGNNTVLAYQRDDPRVRLISVDDNKVTTVHPGFKGGKPAVTKDKQRVYSIGWEGTHTVYVYMKASGWAPTRIGQLGSTFSGKIGAVALDETEEWLYFVDSNKNFGRFNVKTQEVTLIKQLELSGSLGTNPGPYLIYYFVDSNFYMSDQNLSSVYKITPDGECEWFCGSATQKTVQDGLREEALFAQPNGMTVDEDGNFYIVDGFKGYCLRKLDILDGYVSTVAGQVDVASQIDGTPLEATFNYPYDICYDGEGGYWIAEAWGKAIRKYAVE", "protein production": "failed"},
      {"sequence": "MRNETGGTMVVDLQTDPYNNIHSRHNLSYDLSEGPKPRPKFGNISKTDHDEIFPPDDPIIINSNVTHQRFSSVSASTMSSGPASGEGSPCVMSPWARVSPPWGADFNEDNVLETNGLIGSIVRKEGHIYSLAASGDLLYTGSDSKNIRVWKNLKEHAGFKSSSGLIKAIVIFGDRIFTGHQDGKIRIWKVSKRKPGKHKRVGTLPTFKSMVKSSVNPKHFMEVRRNRNSVKTKHNDAVSSLSLDVELGLLYSSSWDTTIKVWRIADSKCLESIHAHDDAINSVMSGFDDLVFTGSADGTVKVWKRELQGKGTKHTLAQVLLKQENAVTALAVKSQSSIVYCGSSDGLVNYWERSKRSFTGGILKGHKSAVLCLGIAGNLLLSGSADKNICVWRRDPSDKSHQCLSVLTGHMGPVKCLAVEEERACHQGAKASVAEGDRKWIIYSGSLDKSVKVWRVSERMATWKEMDEPAASSERKSSSSPHEGSGAWSSRNVEK", "protein production": "failed"},
      {"sequence": "MRNLKDRVLNSLKGNKKDIKISVVVPTYNTELEGLKNLMASIDKQTMNPDEYELVFVDDGSTTDTYERLQEFAETRPNMTVKQIENSGWGSRPRNIATKMAKGEYILYLDHDDTVFPETFERVYNFGKENNLDVVSGKEVRTNGWSWGWKQFSENNPHAEEMGIECLLPMTPHKFYKREFLLENDITFDDGARVLWEDVYFNSKAFIHGAKVGILADYPTYYWIATGANNSSSFGRDPHEKWNQINKLFNFFKDNIKEQRDLDFMLTHWYRSRVLGILGQWLLKNNNERIDIEFNYAKKLAEELIPAYISENLDKNNQVKDYLLRQGDLDSLKKLAQIDAGITALSYVEDAYFKEDKLFFKTSTKMTYEDKEDFFIEKTADRMERILPEEIKSKLPKEFFDYSDDLAEFTYEPSIKGRNSRATWKIDGSTSNVEVVNKKANLYKIEGEMSFSVQINDYILDAADKKQPWDIATRFTGLGYTSHRALTIGKILIKTALINNKTMIVYKNASGLISLDVGSSVRSIVEDSGVKREQILIDKTSGKVTIPLNEIHVFGESLIEGNAELKPVGISDADPINVKAKLIGEANKARVEVLLGDEKLSGEYHLVTNIQGKKDKQQIKITL", "protein production": "failed"},
      {"sequence": "MRNLLQKCFKWQWLVCLAVGCCFSSCKDDEESTSGYDPNKPIVLTDFYPPEGKLATQVILNGSNFGDSKENVKVFFNDKEASVISVKDDRMLVLAPKRASTIEDPECVVKVQVHEQIEEYKQTFDYYIQTTVTTLVGGSTSAQVNPTGTIPLSEAQFRANIDRCICVDQDKNVFFLVDNDGKFAAFMLNEEADKLISLKSDINALFNSPVLGYNSKDDIVYQFWANRDSHEVYYFDPKTDYAPTTAISSISWDDPNFPNIEGFGVWAAKCNFTMGPDGKMYSRMLGGNLVRIDVENARGENLTNGDLVGTKDGSAYGLVFDPQDENVFYFSNNDKHCIYKYDLRTKECACWAGQEGKSGYLDGPIGQAMFNKPGQMCVDSEGNIILTDTENHCIRKITMSTGYVSTLAGKPQNSGYVNGSAEDAQFKKPLGICIDNDDVMYIGDSENRAIRRLAVELEHHHHHH", "protein production": "not failed"}
    ]}
  ]
}
